# Values of other authors as cited in paper PMC3061256.
# Target: HPr (Escherichia coli) (UniProt P0AA04)
substance,measurement,value
EIN (enzyme I N-terminal domain) N-terminal domain (from UniProt P08839),Kd,10 µM
